This is an account of results in patent publication US20230050846A1, “TREATMENT OF HEPATIC AND CARDIOVASCULAR DISORDERS” (LIFESEARCH, priority 2019, published 2023).

Square brackets hold non-standard residues; d marks the D form. Ends that are not written are not given here. * marks the point of attachment. Biotin = O=C1N[C@H]2[C@H](CS[C@H]2CCCCC(=O)*)N1; Palmitoyl = CCCCCCCCCCCCCCCC(=O)*; AEEA = NCCOCCOCC(=O)O

Experiment [1] deals with Human F1Fo-ATPase purified from HepG2 cells (human). Kind of experiment: SPR (BIAcore T200), biotinylated peptide immobilised on streptavidin chip, purified F1Fo-ATPase as analyte, single-cycle kinetics.
Experiment [2] shares this target. As to the kind of experiment: SPR (BIAcore T200), single-cycle kinetics; peptide immobilised as ligand on streptavidin chip, F1Fo-ATPase as analyte injected at 31.25, 62.5, 125, 250 and 500 nM.
For experiment [3] the target is unchanged. Kind of experiment: SPR (BIAcore T200), single-cycle kinetics; peptide immobilised as ligand on NTA chip, F1Fo-ATPase as analyte injected at 31.25, 62.5, 125, 250 and 500 nM.
The target is the same in experiment [4]. Kind of experiment: SPR (BIAcore T200), His-tagged peptide immobilised on NTA chip, purified F1Fo-ATPase as analyte, single-cycle kinetics.

B1: Formula (II)-Biotin: CH3CO-[SEQ ID NO: 1]-K-[palmitoyl]-AEEAc-K-[biotinyl]-NH2 (peptide)
peptide: Ac-RGAGSIREAGGAFGKREQAEEERYFRAQSREK(Palmitoyl)[AEEA]K(Biotin)-NH2
SMILES: CCCCCCCCCCCCCCCC(=O)NCCCC[C@H](NC(=O)[C@H](CCC(=O)O)NC(=O)[C@H](CCCNC(=N)N)NC(=O)[C@H](CO)NC(=O)[C@H](CCC(N)=O)NC(=O)[C@H](C)NC(=O)[C@H](CCCNC(=N)N)NC(=O)[C@H](Cc1ccccc1)NC(=O)[C@H](Cc1ccc(O)cc1)NC(=O)[C@H](CCCNC(=N)N)NC(=O)[C@H](CCC(=O)O)NC(=O)[C@H](CCC(=O)O)NC(=O)[C@H](CCC(=O)O)NC(=O)[C@H](C)NC(=O)[C@H](CCC(N)=O)NC(=O)[C@H](CCC(=O)O)NC(=O)[C@H](CCCNC(=N)N)NC(=O)[C@H](CCCCN)NC(=O)CNC(=O)[C@H](Cc1ccccc1)NC(=O)[C@H](C)NC(=O)CNC(=O)CNC(=O)[C@H](C)NC(=O)[C@H](CCC(=O)O)NC(=O)[C@H](CCCNC(=N)N)NC(=O)[C@@H](NC(=O)[C@H](CO)NC(=O)CNC(=O)[C@H](C)NC(=O)CNC(=O)[C@H](CCCNC(=N)N)NC(C)=O)[C@@H](C)CC)C(=O)NCCOCCOCC(=O)N[C@@H](CCCCNC(=O)CCCC[C@@H]1SC[C@@H]2NC(=O)N[C@@H]21)C(N)=O
Take B1: the Kd in experiment [1] is 4.45 nM; in experiment [2] it was 3 nM. In experiment [2], the koff was found to be 6.85e-05 s⁻¹.

Molecule Ac-RGAGSIREAGGAFGKREQAEEERYFRAQSREHHHHHH [Formula (I)-His-tag: CH3CO-[SEQ ID NO: 1]-HHHHHH] gave a koff in experiment [3] of 0.000643 s⁻¹. In experiment [4], this molecule came in with a Kd of 19 nM.
